This test addresses biotinylated Aβ1-28 peptide. Nature of the test: ELISA, biotinylated peptide (Anaspec) on streptavidin plate, 10 µg/ml mAb. The settings on record: remark: other sources report otherwise.

O.D. after background subtraction (mean) data for one molecule are collected here from patent US20160000910A1.

biotinylated Aβ1-28 peptide, sequence (chain, as listed by the source): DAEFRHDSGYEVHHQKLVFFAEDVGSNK

B1: mouse monoclonal antibody ACI-11-Ab-9 (antibody, V domains shown)
VL: QAVVTQESALTTSPGGTVILTCRSSTGAVTTSNYANWVQEKPDHLFTGLIGGTSNRAPGVPVRFSGSLIGDKAALTITGAQTEDDAMYFCALWYSTHYVFGGGTKVTVL
VH: QVQLQQSDAELVKPGASVKISCKVSGYTFTDHTIHWMKQRPEQGLEWIGYIYPRDGSTKYNEKFKGKATLTADKSSSTAYMQLNSLTSEDSAVYFCARDYGYAFDYWGQGTTLTVSS
modifications: here or on the partner: biotinylated (position not given)
With B1, the O.D. after background subtraction (mean) came out at 0.53 O.D.
